Data published in patent US20250263490A1 (VIB VZW, published 2025).
Each block holds one binder with its values, some of them ahead of it.

Assays:
[1] = target: T1, recombinant human domain 1-3His6 of the cation-independent mannose-6-phosphate receptor (human, UniProt P11717 41-467); experiment: BLI at pH 7.4, 2nd of 2 repeats; BLI, biotinylated hDom1-3His6 on streptavidin tips, pH 7.4, experiment 2
T1 construct: Biotinylated (NHS-PEG4-biotin) for BLI; Glycosylated; also called hDom1-3His6; hCI-M6PRD1-D3

[2] = target: T1, recombinant human domain 1-3His6 of the …; experiment: BLI, dissoc pH 5, mean of local fits
Method: (§1) FIGS. 58 & 59. […] BLI was performed on an Octet Red96 (FortéBio) instrument in kinetics buffer (0.2 M Na₂HPO₄, 0.1 M Na⁺ citrate, 0.01% bovine serum albumin, 0.002% Tween-20). Biotinylated human domain₁₋₃His₆ was immobilized on Streptavidin SA biosensors (Sartorius) to a signal of 0.6 nm. […] Between assays, biosensors were regenerated by three times 10 s exposure to regeneration buffer (10 mM glycine pH 3). The degree of association and dissociation was measured in δ nm over time (s).
(§2) After loading, the tips were incubated with VHHs serially diluted in pH 7.4 kinetic buffer during the association phase and dissociation was performed at pH 7.4, pH 6.5, pH 6.0, pH 5.5 and pH 5.0. All biosensor tips were then regenerated before analysis of the subsequent VHH. Table 13 summarizes the kinetic parameters retrieved after processing and curve fitting of the BLI measurements. When both association and dissociation were performed at pH 7.4, a global fit was performed according to the 1:1 binding model of which the resulting affinity constants (KD), association (kₒₙ) and dissociation rate constants (koff) are shown. For measurements with association at pH 7.4 and dissociation at pH 6.5, 6.0, 5.5 and 5.0, the depicted dissociation rate constants are an average of the parameters determined by local curve fitting of the dissociation of 200, 100 and 50 nM VHH.

[3] = target: T1, recombinant human domain 1-3His6 of the …; experiment: BLI, dissoc pH 5.5, mean of local fits
Method: as §1, §2

[4] = target: T1, recombinant human domain 1-3His6 of the …; experiment: BLI, dissoc pH 6, mean of local fits
Method: as §1, §2

[5] = target: T1, recombinant human domain 1-3His6 of the …; experiment: BLI, dissoc pH 6.5, mean of local fits
Method: as §1, §2

[6] = target: T1, recombinant human domain 1-3His6 of the …; experiment: BLI, global 1:1 fit, pH 7.4
Method: as §1, §2

[7] = target: T1, recombinant human domain 1-3His6 of the …; experiment: BLI exp 2, dissoc pH not printed (between 7 and 6, presumably 6.5)
[8] = target: T1, recombinant human domain 1-3His6 of the …; experiment: BLI
[9] = target: T2, mouse cation-independent mannose-6-phosphate receptor on cells (mouse, UniProt Q07113 36-2483); experiment: flow cytometry on fixed/permeabilised mouse bEND3 cells (sheet: Binding FACS in bEND3 (Fixed/Permeabilized); legend: internalisation detected upon permeabilisation) [upper graph]
T2 construct: whole, on cells; also called mouse CI-M6PR of bEND3 cells; mCI-M6PR
T2 sequence (Q07113 36-2483): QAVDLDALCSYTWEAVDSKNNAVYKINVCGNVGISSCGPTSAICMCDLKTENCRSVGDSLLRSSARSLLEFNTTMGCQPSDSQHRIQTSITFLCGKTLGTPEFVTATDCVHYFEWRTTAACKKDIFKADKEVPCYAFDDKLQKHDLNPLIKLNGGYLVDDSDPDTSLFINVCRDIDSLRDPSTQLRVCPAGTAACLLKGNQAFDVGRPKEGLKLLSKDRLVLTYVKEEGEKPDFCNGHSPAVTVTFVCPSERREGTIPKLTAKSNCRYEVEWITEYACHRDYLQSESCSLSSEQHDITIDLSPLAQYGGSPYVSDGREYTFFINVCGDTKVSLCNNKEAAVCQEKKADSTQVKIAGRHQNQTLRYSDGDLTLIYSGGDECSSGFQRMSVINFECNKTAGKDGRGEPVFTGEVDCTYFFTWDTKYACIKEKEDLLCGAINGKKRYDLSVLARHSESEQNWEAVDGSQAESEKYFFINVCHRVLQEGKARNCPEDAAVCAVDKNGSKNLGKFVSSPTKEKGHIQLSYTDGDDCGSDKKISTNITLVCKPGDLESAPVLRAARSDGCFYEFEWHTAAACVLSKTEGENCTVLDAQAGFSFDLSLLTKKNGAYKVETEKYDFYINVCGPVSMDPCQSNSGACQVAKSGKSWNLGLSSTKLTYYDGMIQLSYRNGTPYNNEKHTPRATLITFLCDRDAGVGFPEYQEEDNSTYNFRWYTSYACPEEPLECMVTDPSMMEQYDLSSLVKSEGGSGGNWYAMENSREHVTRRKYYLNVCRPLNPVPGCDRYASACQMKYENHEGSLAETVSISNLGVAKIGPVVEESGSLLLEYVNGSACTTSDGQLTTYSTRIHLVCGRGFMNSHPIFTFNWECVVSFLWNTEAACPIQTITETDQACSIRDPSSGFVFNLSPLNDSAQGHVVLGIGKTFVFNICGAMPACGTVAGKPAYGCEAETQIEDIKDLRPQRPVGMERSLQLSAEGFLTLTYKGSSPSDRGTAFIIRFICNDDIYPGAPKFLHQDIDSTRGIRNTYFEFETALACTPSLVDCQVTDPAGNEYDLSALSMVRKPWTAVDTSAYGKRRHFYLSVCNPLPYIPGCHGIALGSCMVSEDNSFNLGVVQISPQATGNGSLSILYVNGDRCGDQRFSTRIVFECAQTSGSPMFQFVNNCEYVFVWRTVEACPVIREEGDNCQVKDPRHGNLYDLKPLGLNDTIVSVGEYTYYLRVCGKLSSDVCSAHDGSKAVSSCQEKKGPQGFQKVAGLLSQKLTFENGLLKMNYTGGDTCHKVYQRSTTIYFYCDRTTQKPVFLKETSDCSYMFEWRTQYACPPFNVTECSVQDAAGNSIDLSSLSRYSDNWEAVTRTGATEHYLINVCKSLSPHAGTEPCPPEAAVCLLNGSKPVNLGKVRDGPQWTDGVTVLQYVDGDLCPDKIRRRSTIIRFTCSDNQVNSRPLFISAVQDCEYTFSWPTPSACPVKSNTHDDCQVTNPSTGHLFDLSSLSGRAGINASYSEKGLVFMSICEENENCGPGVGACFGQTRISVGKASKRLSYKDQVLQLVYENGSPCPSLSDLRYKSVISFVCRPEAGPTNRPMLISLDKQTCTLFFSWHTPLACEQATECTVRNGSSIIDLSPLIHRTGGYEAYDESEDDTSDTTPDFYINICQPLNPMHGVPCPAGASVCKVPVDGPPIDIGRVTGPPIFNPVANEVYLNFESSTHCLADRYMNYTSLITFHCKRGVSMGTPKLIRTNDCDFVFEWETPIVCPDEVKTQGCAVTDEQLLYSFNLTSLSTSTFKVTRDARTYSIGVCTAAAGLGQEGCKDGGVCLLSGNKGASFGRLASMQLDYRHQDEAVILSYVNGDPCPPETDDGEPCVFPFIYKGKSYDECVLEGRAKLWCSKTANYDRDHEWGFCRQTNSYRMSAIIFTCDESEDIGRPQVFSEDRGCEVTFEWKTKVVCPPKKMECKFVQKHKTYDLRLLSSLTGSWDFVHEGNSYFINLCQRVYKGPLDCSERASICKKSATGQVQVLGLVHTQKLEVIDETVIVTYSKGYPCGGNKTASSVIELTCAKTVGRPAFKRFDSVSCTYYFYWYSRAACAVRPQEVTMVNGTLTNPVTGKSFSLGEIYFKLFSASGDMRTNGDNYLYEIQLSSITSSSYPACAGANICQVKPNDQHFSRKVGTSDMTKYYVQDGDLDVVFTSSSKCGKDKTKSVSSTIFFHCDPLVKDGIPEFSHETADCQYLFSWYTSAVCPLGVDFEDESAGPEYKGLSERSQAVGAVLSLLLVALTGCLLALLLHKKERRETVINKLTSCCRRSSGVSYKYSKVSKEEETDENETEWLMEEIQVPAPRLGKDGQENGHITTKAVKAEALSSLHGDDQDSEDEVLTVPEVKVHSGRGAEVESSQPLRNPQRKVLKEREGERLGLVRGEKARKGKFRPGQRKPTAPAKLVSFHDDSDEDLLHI
Text: Synthetic DNA fragments encoding VHHs were ordered (IDT, Leuven, Belgium) and subcloned into an E. coli expression vector under control of an IPTG-inducible lac promoter, in frame with N-terminal PelB signal peptide (which directs the recombinant proteins to the periplasmic compartment) and C-terminal FLAG3 and His6 tags. […] VHH proteins were purified from these clones by means of IMAC chromatography followed by desalting according to well established procedures¹⁰⁶. Cells used herein were recovered using cell dissociation non-enzymatic solution (Sigma Aldrich, cat. #C5914-100ML) and resuspended to a final concentration of 1,000,000 cells/mL in FACS buffer. Cells were incubated with different concentrations of purified FLAG3-tagged VHHs for 30 minutes on ice with shaking, followed by washing and incubation with mouse M2 anti-Flag mAb (Sigma Aldrich, cat. #F-1804) in FACS buffer for 30 min on ice with shaking, followed again by washing. […] Flow cytometry and analysis were done on an Attune NxT Flow Cytometer (Thermo Fisher Scientific).

Kd [1]: 2.34 nM
kon [1]: 571000 M⁻¹ s⁻¹
B1: anti-CI-M6PR VHH4 (VHH)
VHH: QVQLQESGGGLVQAGGSLRLSCAASGRTFSNYVMGWFRQAPGKEREFVGSISQGGKMTYYPDSVKGRFTISRDNAKNTMYLQMDGLKPEDTAVYYCAVSRGYPMVRVSEVDYWGQGTQVTVSS
notes: His6-tagged; made in Pichia pastoris

koff [2]: 0.0083 s⁻¹
koff [3]: 0.0063 s⁻¹
koff [4]: 0.0051 s⁻¹
koff [5]: 0.0048 s⁻¹
Kd [6]: 4.9 nM
koff [6]: 0.0025 s⁻¹
kon [6]: 510000 M⁻¹ s⁻¹
B2: anti-CI-M6PR VHH 1H11 (VHH)
VHH: QVQLQESGGGLVQPGGSLRLSCAASGIIFSDNRMDWYRQAPGKQREWVATLASYGWKTYADSVKDRFTISRDNAKNTVNLYMNSLQPEDTAVYYCNSGQYWGQGTQVTVSS
notes: made in E. coli WK6, His-tag purified

koff [7]: 0.00017 s⁻¹
B3: anti-CI-M6PR VHH5 (VHH)
VHH: QVQLQESGGGLVQAGGSLKLSCAAAGRTFSRLAMGWFRQAPGKEREFVAAISENGDSIHYSDSVKGRFAVSRDNAKNTVYLQMNSLKPEDTAIYYCAADRAAYYCSGSGCYPSRAPAAASYDYWGQGTQVTVSS
notes: His6-tagged; made in Pichia pastoris, later also in E. coli WK6

fold higher dissociation rate at pH 6.0 versus pH 7.4 [8]: 5 fold
EC50 (read off the curve) [9]: ~50 nM
B4: anti-CI-M6PR VHH7 (VHH)
VHH: QVQLQESGGGLVQPGGSLRLSCAASGIIFSDNRMDWYRQAPGKQREWVATLASYGWKTYADSVKGRFTISRDNTKNTVYLRMNSLKPEDTAVYYCKASSPVLNDIWGQGTQVTVSS
notes: His6-tagged (Pichia pastoris)
